Experimental data from the supplement of paper PMC10201428.
± gives the standard deviation of the averaged measurements.

Experiments:
[1] = test system: VchCAST RNA-guided transposition machinery (E. coli BL21(DE3) host, lacZ target); assay: relative integration efficiency (T-RL orientation) vs wild-type transposon end (log2 (normalized fold change)); transposon end mutated: right end (5 bp flank + 75 bp right end); higher = more efficient transposition
In short: (§1)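 Co-transformation of E. coli BL21(DE3) combined a pUC57 mini-transposon donor, holding barcoded pools of 1549 left-end or 1849 right-end variants, with a T7-driven plasmid encoding a CRISPR array, tniQ-cas8-cas7-cas6 and tnsA-tnsB-tnsC. After plating with 0.1 mM IPTG at 37°C for 18 h, input plasmids and genomic integration junctions were PCR-amplified and Illumina-sequenced across two biological output replicates, with four reference barcodes. Relative integration efficiency is the normalised, log-transformed output/input barcode fold change.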

[2] = test system: VchCAST RNA-guided transposition machinery (E. coli BL21(DE3) host, lacZ target); assay: relative integration efficiency (T-LR orientation) vs wild-type transposon end (log2 (normalized fold change)); transposon end mutated: right end (5 bp flank + 75 bp right end); higher = more efficient transposition
In short: as §1

Sequence | relative integration efficiency (log2) [1] | relative integration efficiency (log2) [2]
ACATTTGTTGATACAACCATAAAATGGTAATTCCACCCATAAATTGATAATTATCACACCCAATTTAACTATAACGCTCTGATCATAGTCAGACCAACATTGCTACGACCCGTATTCGCACCGACAC | -1.45 ± 0.25 | 2.06 ± 0.044
ACATTTGTTGATACAACCATAAAATGGTAATTCCACCCATACATTGATAATTATCACACCCAATTTAACTATAACGCTCTGATCATAGTCAGACCAACATTGCTACGACCCGTATTCGCACCGACAC | -3.15 ± 0.33 | 0.391 ± 0.15
ACATTTGTTGATACAACCATAAAATGGTAATTCCACCCCTAAATTGATAATTATCACACCCAATTTAACTATAACGCTCTGATCATAGTCAGACCAACATTGCTACGACCCGTATTCGCACCGACAC | -3.6 ± 0.27 | -0.518 ± 0.25
ACATTTGTTGATACAACCATAAAATGGTAATTCCACCCCTACATTGATAATTATCACACCCAATTTAACTATAACGCTCTGATCATAGTCAGACCAACATTGCTACGACCCGTATTCGCACCGACAC | -3.92 ± 0.41 | -0.604 ± 0.45
ACATTTGTTGATACAACCATAAAATGTAAATTACACCCATAAATTGATAATTATCACACCCATAAATTGATATTGCCTCTGATCATAGTCAGACCAACATTGCTACGACCCGTATTCGCACCGACAC | -0.732 ± 0.084 | -0.454 ± 0.18
ACATTTGTTGATACAACCATAAAATGTATTAATCACCCATAAATTGTATTAATTCACACCCATAAATTGTATAACGCTCTGATCATAGTCAGACCAACATTGCTACGACCCGTATTCGCACCGACAC | -4.24 ± 0.14 | -2.39 ± 0.35
ACATTTGTTGATACAACCATAAAATGTATTTTACACCCATAAATTGATAATTATCACACCCATAAATTGATATTGCCTCTGATCATAGTCAGACCAACATTGCTACGACCCGTATTCGCACCGACAC | -0.938 ± 0.035 | -0.626 ± 0.31
ACATTTGTTGATACAACCATAAAATGTTAATTACACCCATAAATTGTTAATTATCACACCCATAAATTGTTATTGCCTCTGATCATAGTCAGACCAACATTGCTACGACCCGTATTCGCACCGACAC | -2.33 ± 0.29 | -0.437 ± 0.34
ACATTTGTTGATACAACCATAAAATTATAATTACACCCATAAATTTATAATTATCACACCCATAAATTTATATTGCCTCTGATCATAGTCAGACCAACATTGCTACGACCCGTATTCGCACCGACAC | -1.23 ± 0.3 | 0.398 ± 0.67
ACATTTGTTGATACAACCATAAAATTATTATTACACCCATTAATTGATAATTATCACACCCAATTTAACTATAACGCTCTGATCATAGTCAGACCAACATTGCTACGACCCGTATTCGCACCGACAC | -2.35 ± 0.18 | 1.15 ± 0.09
ACATTTGTTGATACAACCATAAAATTCGCATTACACCCATAAATTGATAATTATCACACCCATAAATTGATATTGCCTCTGATCATAGTCAGACCAACATTGCTACGACCCGTATTCGCACCGACAC | -2.95 ± 0.25 | -2.45 ± 0.2
ACATTTGTTGATACAACCATAAAATTCGCCGGCACAAACGCCCGGTCGCCGGCGACACAAACGCCCGGTCGCGGTAAGAGGATCATAGTCAGACCAACATTGCTACGACCCGTATTCGCACCGACAC | -4.45 ± 0.73 | -0.949 ± 0.46
ACATTTGTTGATACAACCATAAAATTCTAATTACACCCATAAATTGATAATTATCACACCCATAAATTGATATTGCCTCTGATCATAGTCAGACCAACATTGCTACGACCCGTATTCGCACCGACAC | -1.85 ± 0.18 | -1.38 ± 0.16
ACATTTGTTGATACAACCATAAACGGATAATTACACCCATAAATTGATAATTATCACACCCATAAATTGATATTGCCTCTGATCATAGTCAGACCAACATTGCTACGACCCGTATTCGCACCGACAC | -0.642 ± 0.01 | -0.722 ± 0.72
ACATTTGTTGATACAACCATAAACGTCTAATTACACCCATAAATTGATAATTATCACACCCATAAATTGATATTGCCTCTGATCATAGTCAGACCAACATTGCTACGACCCGTATTCGCACCGACAC | -2.72 ± 0.083 | -2.25 ± 0.11
ACATTTGTTGATACAACCATAAACTGATAATTACACCCATAAAGTGATAATTATCACACCCATAAAGTGATATTGCCTCTGATCATAGTCAGACCAACATTGCTACGACCCGTATTCGCACCGACAC | 0.368 ± 0.095 | 0.264 ± 0.12
ACATTTGTTGATACAACCATAAAGTGATATTTACAACCATAAAATGATAATTATCACAACCATAAAATGATAATTACTCTGATCATAGTCAGACCAACATTGCTACGACCCGTATTCGCACCGACAC | 0.174 ± 0.1 | 0.0497 ± 0.074
ACATTTGTTGATACAACCATAAAGTGATATTTACAACCATAAAATGATAATTATCACAACCATAAAGTGATATTTACTCTGATCATAGTCAGACCAACATTGCTACGACCCGTATTCGCACCGACAC | 0.0289 ± 0.14 | 0.103 ± 0.36

Sequence | relative integration efficiency (log2) [1] | relative integration efficiency (log2) [2]
ACATTTGTTGATACAACCATAAAGTGATATTTACAACCATAAAATGATAATTATCACAACCATAAGTTGATATTTTCTCTGATCATAGTCAGACCAACATTGCTACGACCCGTATTCGCACCGACAC | 0.113 ± 0.034 | -0.0726 ± 0.055
ACATTTGTTGATACAACCATAAAGTGATATTTACAACCATAAAATGATAATTATCACAACCATATATTGATATCTCCTCTGATCATAGTCAGACCAACATTGCTACGACCCGTATTCGCACCGACAC | -0.261 ± 0.13 | -0.163 ± 0.73
ACATTTGTTGATACAACCATAAAGTGATATTTACAACCATAAAATGATAATTATCACACCCATAAATTGATAATTACTCTGATCATAGTCAGACCAACATTGCTACGACCCGTATTCGCACCGACAC | 0.346 ± 0.076 | 0.307 ± 0.068
ACATTTGTTGATACAACCATAAAGTGATATTTACAACCATAAAATGATAATTATCACACCCATAAATTGATATTGCCTCTGATCATAGTCAGACCAACATTGCTACGACCCGTATTCGCACCGACAC | -0.00564 ± 0.04 | -0.097 ± 0.68
ACATTTGTTGATACAACCATAAAGTGATATTTACAACCATAAAATGATAATTATCAGTGGGTATTTAACTATAACGCTCTGATCATAGTCAGACCAACATTGCTACGACCCGTATTCGCACCGACAC | -0.714 ± 0.27 | 2.86 ± 0.12
ACATTTGTTGATACAACCATAAAGTGATATTTACAACCATAAAGTGATATTTATCACAACCATAAAATGATAATTACTCTGATCATAGTCAGACCAACATTGCTACGACCCGTATTCGCACCGACAC | 0.0579 ± 0.16 | 0.11 ± 0.34
ACATTTGTTGATACAACCATAAAGTGATATTTACAACCATAAAGTGATATTTATCACAACCATAAAGTGATATTTACTCTGATCATAGTCAGACCAACATTGCTACGACCCGTATTCGCACCGACAC | 0.0208 ± 0.11 | 0.061 ± 0.087
ACATTTGTTGATACAACCATAAAGTGATATTTACAACCATAAAGTGATATTTATCACAACCATAAGTTGATATTTTCTCTGATCATAGTCAGACCAACATTGCTACGACCCGTATTCGCACCGACAC | 0.0887 ± 0.14 | -0.279 ± 0.16
ACATTTGTTGATACAACCATAAAGTGATATTTACAACCATAAAGTGATATTTATCACAACCATATATTGATATCTCCTCTGATCATAGTCAGACCAACATTGCTACGACCCGTATTCGCACCGACAC | 0.115 ± 0.19 | 0.458 ± 0.14
ACATTTGTTGATACAACCATAAAGTGATATTTACAACCATAAAGTGATATTTATCACACCCATAAATTGATAATTACTCTGATCATAGTCAGACCAACATTGCTACGACCCGTATTCGCACCGACAC | 0.0651 ± 0.0083 | 0.289 ± 0.082
ACATTTGTTGATACAACCATAAAGTGATATTTACAACCATAAAGTGATATTTATCACACCCATAAATTGATATTGCCTCTGATCATAGTCAGACCAACATTGCTACGACCCGTATTCGCACCGACAC | -0.0388 ± 0.082 | -0.0332 ± 0.27
ACATTTGTTGATACAACCATAAAGTGATATTTACAACCATAAAGTGATATTTATCAGTGGGTATTTAACTATAACGCTCTGATCATAGTCAGACCAACATTGCTACGACCCGTATTCGCACCGACAC | -0.497 ± 0.26 | 2.91 ± 0.034
ACATTTGTTGATACAACCATAAAGTGATATTTACAACCATAAGTTGATATTTTTCACAACCATAAAATGATAATTACTCTGATCATAGTCAGACCAACATTGCTACGACCCGTATTCGCACCGACAC | -0.0427 ± 0.12 | 0.217 ± 0.045
ACATTTGTTGATACAACCATAAAGTGATATTTACAACCATAAGTTGATATTTTTCACAACCATAAAGTGATATTTACTCTGATCATAGTCAGACCAACATTGCTACGACCCGTATTCGCACCGACAC | 0.0395 ± 0.16 | 0.0534 ± 0.15
ACATTTGTTGATACAACCATAAAGTGATATTTACAACCATAAGTTGATATTTTTCACAACCATAAGTTGATATTTTCTCTGATCATAGTCAGACCAACATTGCTACGACCCGTATTCGCACCGACAC | 0.36 ± 0.12 | 0.284 ± 0.16
ACATTTGTTGATACAACCATAAAGTGATATTTACAACCATAAGTTGATATTTTTCACAACCATATATTGATATCTCCTCTGATCATAGTCAGACCAACATTGCTACGACCCGTATTCGCACCGACAC | 0.0944 ± 0.13 | 0.346 ± 0.17
ACATTTGTTGATACAACCATAAAGTGATATTTACAACCATAAGTTGATATTTTTCACACCCATAAATTGATAATTACTCTGATCATAGTCAGACCAACATTGCTACGACCCGTATTCGCACCGACAC | -0.192 ± 0.21 | 0.0675 ± 0.11
